Tested on: KDM4A-I71AzF
Experiment: CASI: photo-crosslinking with HEK293T cell extracts, StrepTactin enrichment and LC-MS/MS proteomics;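 also: lysates from HEK293T cells pretreated with a KDM4 inhibitor to raise proteome methylation, affinity-purified after ±UV, gel-resolved, trypsin-digested, with exclusive unique peptides per protein averaged per condition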
Assay type: binding, human
Settings: sheet "Final results but with 0.01"

Molecule	Fold change (+UV/-UV)
TF3C4_HUMAN (protein, UniProt Q9UKN8 1-822, looked up) General transcription factor …: MNTADQARVGPADDGPAPSGEEEGEGGGEAGGKEPAADAAPGPSAAFRLMVTRREPAVKLQYAVSGLEPLAWSEDHRVSVSTARSIAVLELICDVHNPGQDLVIHRTSVPAPLNSCLLKVGSKTEVAECKEKFAASKDPTVSQTFMLDRVFNPEGKALPPMRGFKYTSWSPMGCDANGRCLLAALTMDNRLTIQANLNRLQWVQLVDLTEIYGERLYETSYRLSKNEAPEGNLGDFAEFQRRHSMQTPVRMEWSGICTTQQVKHNNECRDVGSVLLAVLFENGNIAVWQFQLPFVGKESISSCNTIESGITSPSVLFWWEYEHNNRKMSGLIVGSAFGPIKILPVNLKAVKGYFTLRQPVILWKEMDQLPVHSIKCVPLYHPYQKCSCSLVVAARGSYVFWCLLLISKAGLNVHNSHVTGLHSLPIVSMTADKQNGTVYTCSSDGKVRQLIPIFTDVALKFEHQLIKLSDVFGSVRTHGIAVSPCGAYLAIITTEGMINGLHPVNKNYQVQFVTLKTFEEAAAQLLESSVQNLFKQVDLIDLVRWKILKDKHIPQFLQEALEKKIESSGVTYFWRFKLFLLRILYQSMQKTPSEALWKPTHEDSKILLVDSPGMGNADDEQQEEGTSSKQVVKQGLQERSKEGDVEEPTDDSLPTTGDAGGREPMEEKLLEIQGKIEAVEMHLTREHMKRVLGEVYLHTWITENTSIPTRGLCNFLMSDEEYDDRTARVLIGHISKKMNKQTFPEHCSLCKEILPFTDRKQAVCSNGHIWLRCFLTYQSCQSLIYRRCLLHDSIARHPAPEDPDWIKRLLQSPCPFCDSPVF	0.6667
RNZ2_HUMAN (protein, UniProt Q9BQ52 17-826, looked up) Zinc phosphodiesterase ELAC …: SQGRTISQAPARRERPRKDPLRHLRTREKRGPSGCSGGPNTVYLQVVAAGSRDSGAALYVFSEFNRYLFNCGEGVQRLMQEHKLKVARLDNIFLTRMHWSNVGGLSGMILTLKETGLPKCVLSGPPQLEKYLEAIKIFSGPLKGIELAVRPHSAPEYEDETMTVYQIPIHSEQRRGKHQPWQSPERPLSRLSPERSSDSESNENEPHLPHGVSQRRGVRDSSLVVAFICKLHLKRGNFLVLKAKEMGLPVGTAAIAPIIAAVKDGKSITHEGREILAEELCTPPDPGAAFVVVECPDESFIQPICENATFQRYQGKADAPVALVVHMAPASVLVDSRYQQWMERFGPDTQHLVLNENCASVHNLRSHKIQTQLNLIHPDIFPLLTSFRCKKEGPTLSVPMVQGECLLKYQLRPRREWQRDAIITCNPEEFIVEALQLPNFQQSVQEYRRSAQDGPAPAEKRSQYPEIIFLGTGSAIPMKIRNVSATLVNISPDTSLLLDCGEGTFGQLCRHYGDQVDRVLGTLAAVFVSHLHADHHTGLPSILLQRERALASLGKPLHPLLVVAPNQLKAWLQQYHNQCQEVLHHISMIPAKCLQEGAEISSPAVERLISSLLRTCDLEEFQTCLVRHCKHAFGCALVHTSGWKVVYSGDTMPCEALVRMGKDATLLIHEATLEDGLEEEAVEKTHSTTSQAISVGMRMNAEFIMLNHFSQRYAKVPLFSPNFSEKVGVAFDHMKVCFGDFPTMPKLIPPLKALFAGDIEEMEERREKRELRQVRAALLSRELAGGLEDGEPQQKRAHTEEPQAKKVRAQ	0.5
FIP1_HUMAN (protein, UniProt Q6UN15 1-594, looked up) Pre-mRNA 3'-end-processing …: MSAGEVERLVSELSGGTGGDEEEEWLYGGPWDVHVHSDLAKDLDENEVERPEEENASANPPSGIEDETAENGVPKPKVTETEDDSDSDSDDDEDDVHVTIGDIKTGAPQYGSYGTAPVNLNIKTGGRVYGTTGTKVKGVDLDAPGSINGVPLLEVDLDSFEDKPWRKPGADLSDYFNYGFNEDTWKAYCEKQKRIRMGLEVIPVTSTTNKITAEDCTMEVTPGAEIQDGRFNLFKVQQGRTGNSEKETALPSTKAEFTSPPSLFKTGLPPSRNSTSSQSQTSTASRKANSSVGKWQDRYGRAESPDLRRLPGAIDVIGQTITISRVEGRRRANENSNIQVLSERSATEVDNNFSKPPPFFPPGAPPTHLPPPPFLPPPPTVSTAPPLIPPPGFPPPPGAPPPSLIPTIESGHSSGYDSRSARAFPYGNVAFPHLPGSAPSWPSLVDTSKQWDYYARREKDRDRERDRDRERDRDRDRERERTRERERERDHSPTPSVFNSDEERYRYREYAERGYERHRASREKEERHRERRHREKEETRHKSSRSNSRRRHESEEGDSHRRHKHKKSKRSKEGKEAGSEPAPEQESTEATPAE	2
TIF1B_HUMAN (protein, UniProt Q13263 2-835, looked up) Transcription intermediary …: AASAAAASAAAASAASGSPGPGEGSAGGEKRSTAPSAAASASASAAASSPAGGGAEALELLEHCGVCRERLRPEREPRLLPCLHSACSACLGPAAPAAANSSGDGGAAGDGTVVDCPVCKQQCFSKDIVENYFMRDSGSKAATDAQDANQCCTSCEDNAPATSYCVECSEPLCETCVEAHQRVKYTKDHTVRSTGPAKSRDGERTVYCNVHKHEPLVLFCESCDTLTCRDCQLNAHKDHQYQFLEDAVRNQRKLLASLVKRLGDKHATLQKSTKEVRSSIRQVSDVQKRVQVDVKMAILQIMKELNKRGRVLVNDAQKVTEGQQERLERQHWTMTKIQKHQEHILRFASWALESDNNTALLLSKKLIYFQLHRALKMIVDPVEPHGEMKFQWDLNAWTKSAEAFGKIVAERPGTNSTGPAPMAPPRAPGPLSKQGSGSSQPMEVQEGYGFGSGDDPYSSAEPHVSGVKRSRSGEGEVSGLMRKVPRVSLERLDLDLTADSQPPVFKVFPGSTTEDYNLIVIERGAAAAATGQPGTAPAGTPGAPPLAGMAIVKEEETEAAIGAPPTATEGPETKPVLMALAEGPGAEGPRLASPSGSTSSGLEVVAPEGTSAPGGGPGTLDDSATICRVCQKPGDLVMCNQCEFCFHLDCHLPALQDVPGEEWSCSLCHVLPDLKEEDGSLSLDGADSTGVVAKLSPANQRKCERVLLALFCHEPCRPLHQLATDSTFSLDQPGGTLDLTLIRARLQEKLSPPYSSPQEFAQDVGRMFKQFNKLTEDKADVQSIIGLQRFFETRMNEAFGDTKFSAVLVEPPPMSLPGAGLSSQELSGGPGDGP	0.8
ZC3HE_HUMAN (protein, UniProt Q6PJT7 1-736, looked up) Zinc finger CCCH …: MEIGTEISRKIRSAIKGKLQELGAYVDEELPDYIMVMVANKKSQDQMTEDLSLFLGNNTIRFTVWLHGVLDKLRSVTTEPSSLKSSDTNIFDSNVPSNKSNFSRGDERRHEAAVPPLAIPSARPEKRDSRVSTSSQESKTTNVRQTYDDGAATRLMSTVKPLREPAPSEDVIDIKPEPDDLIDEDLNFVQENPLSQKKPTVTLTYGSSRPSIEIYRPPASRNADSGVHLNRLQFQQQQNSIHAAKQLDMQSSWVYETGRLCEPEVLNSLEETYSPFFRNNSEKMSMEDENFRKRKLPVVSSVVKVKKFNHDGEEEEEDDDYGSRTGSISSSVSVPAKPERRPSLPPSKQANKNLILKAISEAQESVTKTTNYSTVPQKQTLPVAPRTRTSQEELLAEVVQGQSRTPRISPPIKEEETKGDSVEKNQGTQQRQLLSRLQIDPVMAETLQMSQDYYDMESMVHADTRSFILKKPKLSEEVVVAPNQESGMKTADSLRVLSGHLMQTRDLVQPDKPASPKFIVTLDGVPSPPGYMSDQEEDMCFEGMKPVNQTAASNKGLRGLLHPQQLHLLSRQLEDPNGSFSNAEMSELSVAQKPEKLLERCKYWPACKNGDECAYHHPISPCKAFPNCKFAEKCLFVHPNCKYDAKCTKPDCPFTHVSRRIPVLSPKPAVAPPAPPSSSQLCRYFPACKKMECPFYHPKHCRFNTQCTRPDCTFYHPTINVPPRHALKWIRPQTSE	4
